This is an account of results in article PMC4575080, “Biophysical Studies on BEX3, the p75^NTR-Associated Cell Death Executor, Reveal a High-Order Oligomer with Partially Folded Regions” (PLoS ONE, 2015).

B1: Brain Expressed X-linked protein 3 (BEX3) (natural protein, UniProt Q9WTZ9 1-124, looked up)
chain: MANVHQENEEMEQPLQNGQEDRPVGGGEGHQPAANNNNNNHNHNHNHHRRGQARRLAPNFRWAIPNRQMNDGLGGDGDDMEMFMEEMREIRRKLRELQLRNCLRILMGELSNHHDHHDEFCLMP
notes: BEX3 (NADE), cDNA encoding 'the mature BEX3' in pET21d; UniProt Q9WTZ9 is printed in the introduction for BEX3; High-order oligomer in native buffer; also called NADE; p75NTR-associated cell death executor
B2: death domain of p75NTR (amino acids 326 to 417) (domain or fragment, UniProt Q9Z0W1 326-417, looked up)
chain: TASGQALKGDGNLYSSLPLTKREEVEKLLNGDTWRHLAGELGYQPEHIDSFTHEACPVRALLASWGAQDSATLDALLAALRRIQRADIVESL
notes: neurotrophin receptor p75 (p75NTR), death domain, amino acids 326 to 417; UniProt Q9Z0W1 is printed in the introduction for p75NTR; For some experiments the His-tag was removed with TEV protease; also called p75NTR DD; His-p75NTR DD

Series [1] concerns the molecule itself. The series is described as follows: SDS-PAGE (SDS-resistant oligomer); refolded BEX3 on SDS-PAGE, before and after addition of 4 or 7 M urea to the sample loading buffer.
The target of series [2] is B1. Description: SPR; p75NTR DD (13 uM) amine-coupled to a CM5 chip (4,000 RU), Biacore X; BEX3 0.2-0.8 uM injected in Buffer A (25 mM MES pH 7.0, 150 mM NaCl, 6 mM beta-ME), 10 uL/min; global fit; apparent Kd = koff/kon. The settings on record: both partners purified.

With B1, the “stoichiometry N” value in series [1] amounted to 2.

As for B2, the Kd in series [2] was 550 nM.
